From the supplement of paper PMC10065799, “High-throughput profiling of sequence recognition by tyrosine kinases and SH2 domains using bacterial peptide display” (eLife, 2023)

Columns and labels:
FGFR3 = FGFR3 (UniProt P22607); test: phosphorylation enrichment, bacterial display (enrichment ratio); higher = better substrate or ligand; peptides without Tyr show the background
Jak2 = Jak2 (UniProt O60674); test: as above
AncSZ = test: as above
Fes = Fes (UniProt P07332); test: as above
MERTK = MERTK (UniProt Q12866); test: as above
EPHB2 = EPHB2 (UniProt P29323); test: as above
Chain of EPHB2 (P29323 whole entry, looked up): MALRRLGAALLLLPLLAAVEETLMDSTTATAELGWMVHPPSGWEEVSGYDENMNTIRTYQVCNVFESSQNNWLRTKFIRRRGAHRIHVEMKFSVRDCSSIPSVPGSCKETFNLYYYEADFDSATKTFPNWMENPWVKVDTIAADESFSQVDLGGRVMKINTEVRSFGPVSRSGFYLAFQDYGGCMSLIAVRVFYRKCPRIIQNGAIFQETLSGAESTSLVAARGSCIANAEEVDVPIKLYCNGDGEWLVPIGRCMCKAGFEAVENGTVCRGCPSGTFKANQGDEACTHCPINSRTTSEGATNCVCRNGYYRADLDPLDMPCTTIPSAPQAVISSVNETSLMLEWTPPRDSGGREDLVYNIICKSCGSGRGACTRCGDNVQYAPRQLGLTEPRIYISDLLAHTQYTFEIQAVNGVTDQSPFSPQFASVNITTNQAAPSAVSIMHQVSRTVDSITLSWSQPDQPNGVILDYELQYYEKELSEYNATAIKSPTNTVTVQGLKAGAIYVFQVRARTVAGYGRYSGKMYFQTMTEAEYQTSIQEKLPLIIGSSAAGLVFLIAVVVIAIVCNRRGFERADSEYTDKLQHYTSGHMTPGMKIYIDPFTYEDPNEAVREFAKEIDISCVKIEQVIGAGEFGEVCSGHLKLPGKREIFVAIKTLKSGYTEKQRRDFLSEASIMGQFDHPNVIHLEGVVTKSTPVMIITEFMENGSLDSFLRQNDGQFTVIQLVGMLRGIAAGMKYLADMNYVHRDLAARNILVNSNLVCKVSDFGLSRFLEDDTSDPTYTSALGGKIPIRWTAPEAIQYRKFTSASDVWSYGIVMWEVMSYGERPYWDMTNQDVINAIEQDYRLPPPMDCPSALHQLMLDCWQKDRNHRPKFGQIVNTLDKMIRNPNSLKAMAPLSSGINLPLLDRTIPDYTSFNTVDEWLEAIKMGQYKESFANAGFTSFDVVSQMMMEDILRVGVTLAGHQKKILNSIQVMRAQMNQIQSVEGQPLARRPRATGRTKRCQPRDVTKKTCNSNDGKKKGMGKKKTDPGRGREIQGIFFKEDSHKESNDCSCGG

c-Abl (mouse) = test: as above
c-Src = test: as above
EPHB1 = EPHB1 (UniProt P54762); test: as above
FGFR1 = FGFR1 (UniProt P11362); test: as above
Chain of FGFR1 (P11362 whole entry, looked up): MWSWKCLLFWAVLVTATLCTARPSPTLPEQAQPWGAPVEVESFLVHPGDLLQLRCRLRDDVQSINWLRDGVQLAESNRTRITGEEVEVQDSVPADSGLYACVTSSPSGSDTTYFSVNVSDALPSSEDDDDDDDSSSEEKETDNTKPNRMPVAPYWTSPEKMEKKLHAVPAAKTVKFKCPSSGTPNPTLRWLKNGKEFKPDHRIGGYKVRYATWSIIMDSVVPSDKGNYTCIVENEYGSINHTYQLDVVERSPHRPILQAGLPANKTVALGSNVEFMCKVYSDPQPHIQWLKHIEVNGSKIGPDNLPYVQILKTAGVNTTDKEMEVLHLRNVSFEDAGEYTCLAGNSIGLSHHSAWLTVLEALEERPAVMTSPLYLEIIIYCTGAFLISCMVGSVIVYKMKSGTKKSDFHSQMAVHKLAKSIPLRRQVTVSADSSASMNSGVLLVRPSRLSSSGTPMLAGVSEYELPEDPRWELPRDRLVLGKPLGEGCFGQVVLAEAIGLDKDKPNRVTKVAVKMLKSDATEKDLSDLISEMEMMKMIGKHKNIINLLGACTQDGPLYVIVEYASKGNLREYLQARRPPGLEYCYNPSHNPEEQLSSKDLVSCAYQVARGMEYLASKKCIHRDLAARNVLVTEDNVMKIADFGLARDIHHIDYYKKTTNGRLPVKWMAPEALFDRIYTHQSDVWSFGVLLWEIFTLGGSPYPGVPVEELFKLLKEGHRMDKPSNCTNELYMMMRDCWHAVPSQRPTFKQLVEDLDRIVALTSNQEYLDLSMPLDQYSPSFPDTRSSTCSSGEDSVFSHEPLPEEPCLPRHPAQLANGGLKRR

Fer (mouse) = test: as above
Hck = Hck (UniProt P08631); test: as above
Chain of Hck (P08631 whole entry, looked up): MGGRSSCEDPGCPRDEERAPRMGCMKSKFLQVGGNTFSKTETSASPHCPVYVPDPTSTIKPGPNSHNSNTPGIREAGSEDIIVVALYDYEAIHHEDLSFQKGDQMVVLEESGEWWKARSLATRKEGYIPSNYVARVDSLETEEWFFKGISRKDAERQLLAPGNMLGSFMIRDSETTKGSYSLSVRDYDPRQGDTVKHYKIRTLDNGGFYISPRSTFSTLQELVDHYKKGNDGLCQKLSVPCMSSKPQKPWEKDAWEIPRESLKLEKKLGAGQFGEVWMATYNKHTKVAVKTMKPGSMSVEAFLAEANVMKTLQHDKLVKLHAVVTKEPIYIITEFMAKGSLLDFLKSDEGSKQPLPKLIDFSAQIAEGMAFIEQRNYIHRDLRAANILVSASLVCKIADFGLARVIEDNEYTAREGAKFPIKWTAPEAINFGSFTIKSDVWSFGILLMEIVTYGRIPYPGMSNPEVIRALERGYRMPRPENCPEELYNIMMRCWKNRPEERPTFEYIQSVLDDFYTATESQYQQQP

Fyn = Fyn (UniProt P06241); test: as above
Chain of Fyn (P06241 whole entry, looked up): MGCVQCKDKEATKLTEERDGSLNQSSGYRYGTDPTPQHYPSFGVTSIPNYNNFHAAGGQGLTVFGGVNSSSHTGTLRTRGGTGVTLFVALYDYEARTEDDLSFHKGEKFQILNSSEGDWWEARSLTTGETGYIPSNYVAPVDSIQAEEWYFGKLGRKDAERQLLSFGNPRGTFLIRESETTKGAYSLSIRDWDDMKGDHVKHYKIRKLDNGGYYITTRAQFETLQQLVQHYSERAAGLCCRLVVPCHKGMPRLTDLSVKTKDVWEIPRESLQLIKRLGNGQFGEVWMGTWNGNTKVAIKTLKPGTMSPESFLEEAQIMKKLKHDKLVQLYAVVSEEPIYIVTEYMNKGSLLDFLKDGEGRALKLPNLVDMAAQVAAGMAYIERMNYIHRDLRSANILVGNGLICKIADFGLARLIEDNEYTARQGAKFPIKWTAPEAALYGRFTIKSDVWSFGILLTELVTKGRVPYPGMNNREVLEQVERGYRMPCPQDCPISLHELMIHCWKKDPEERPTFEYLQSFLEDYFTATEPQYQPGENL

Grb2 SH2 = Grb2 SH2 (UniProt P62993); test: SH2 binding enrichment of the phosphorylated peptide, bacterial display (enrichment ratio); higher = better substrate or ligand; peptides without Tyr show the background
Chain of Grb2 SH2 (P62993 whole entry, looked up): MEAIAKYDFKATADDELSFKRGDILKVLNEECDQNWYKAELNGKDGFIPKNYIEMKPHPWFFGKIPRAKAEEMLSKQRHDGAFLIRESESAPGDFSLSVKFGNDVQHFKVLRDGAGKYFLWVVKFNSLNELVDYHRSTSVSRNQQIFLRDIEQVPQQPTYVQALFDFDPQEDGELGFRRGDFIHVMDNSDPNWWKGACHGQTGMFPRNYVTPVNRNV

SHP2-C SH2 = test: as above
c-Src SH2 = test: as above
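Wherever SH2 binding enrichment of the phosphorylated peptide, bacterial display is given: peptide library displayed on the E. coli surface as eCPX fusions, selected cells deep-sequenced, score is each peptide's frequency after selection divided by its frequency in the input.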
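Wherever phosphorylation enrichment, bacterial display is given: 11-residue human phosphosite peptides and single-mutation variants displayed on the E. coli surface, counted by deep sequencing, each peptide's frequency after selection divided by its frequency in the unselected input library; frequency after pTyr selection over input frequency; kinase dosed for 20-30% of maximal phosphorylation in three min.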

Chain of Jak2 (O60674 whole entry, looked up): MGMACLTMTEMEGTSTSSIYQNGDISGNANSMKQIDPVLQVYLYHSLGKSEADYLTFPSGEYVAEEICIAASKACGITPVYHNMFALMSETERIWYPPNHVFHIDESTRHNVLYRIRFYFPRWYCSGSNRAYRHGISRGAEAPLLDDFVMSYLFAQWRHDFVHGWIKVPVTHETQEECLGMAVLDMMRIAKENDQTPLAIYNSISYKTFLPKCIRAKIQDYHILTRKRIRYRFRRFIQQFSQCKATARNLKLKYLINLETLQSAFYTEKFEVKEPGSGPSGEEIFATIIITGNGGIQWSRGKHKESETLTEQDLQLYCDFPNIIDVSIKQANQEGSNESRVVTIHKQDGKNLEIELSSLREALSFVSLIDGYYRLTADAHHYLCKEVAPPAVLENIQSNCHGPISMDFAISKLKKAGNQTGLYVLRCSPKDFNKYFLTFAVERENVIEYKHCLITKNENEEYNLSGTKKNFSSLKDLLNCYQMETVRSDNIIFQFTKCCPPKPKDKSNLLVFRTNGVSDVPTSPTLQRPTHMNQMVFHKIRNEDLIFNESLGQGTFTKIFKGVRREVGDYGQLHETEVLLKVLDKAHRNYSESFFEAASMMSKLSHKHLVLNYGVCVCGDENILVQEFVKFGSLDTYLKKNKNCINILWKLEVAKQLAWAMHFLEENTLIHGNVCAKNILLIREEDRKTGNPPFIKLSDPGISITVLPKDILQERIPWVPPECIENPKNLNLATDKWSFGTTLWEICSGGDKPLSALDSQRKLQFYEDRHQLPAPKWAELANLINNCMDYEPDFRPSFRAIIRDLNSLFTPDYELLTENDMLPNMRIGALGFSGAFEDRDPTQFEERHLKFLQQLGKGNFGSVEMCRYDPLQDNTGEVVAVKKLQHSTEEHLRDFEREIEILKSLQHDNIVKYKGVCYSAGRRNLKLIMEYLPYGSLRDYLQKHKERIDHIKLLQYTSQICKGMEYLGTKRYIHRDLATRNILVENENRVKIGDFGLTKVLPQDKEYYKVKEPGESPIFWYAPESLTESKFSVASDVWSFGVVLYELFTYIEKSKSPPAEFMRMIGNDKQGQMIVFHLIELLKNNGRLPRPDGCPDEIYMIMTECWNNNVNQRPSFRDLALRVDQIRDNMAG

Sequence | phosphorylation enrichment (FGFR3) | phosphorylation enrichment (Jak2) | phosphorylation enrichment (AncSZ) | phosphorylation enrichment (Fes) | phosphorylation enrichment (MERTK) | phosphorylation enrichment (EPHB2) | phosphorylation enrichment (c-Abl (mouse)) | phosphorylation enrichment (c-Src) | phosphorylation enrichment (EPHB1) | phosphorylation enrichment (FGFR1) | phosphorylation enrichment (Fer (mouse)) | phosphorylation enrichment (Hck) | phosphorylation enrichment (Fyn) | SH2 binding enrichment (Grb2 SH2) | SH2 binding enrichment (SHP2-C SH2) | SH2 binding enrichment (c-Src SH2)
IVLRSYPASGH [NID2_Y449] | 0.596 | 0.682 | 0.726 | 0.817 | 0.493 | 0.451 | 0.511 | 0.415 | 0.532 | 0.392 | 0.479 | 0.415 | 0.481 | 0.716 | 0.831 | 0.533
ILTLKYPIEHG [ACTA1_Y71] | 0.592 | 0.584 | 0.716 | 0.78 | 0.391 | 0.485 | 0.57 | 0.376 | 0.476 | 0.47 | 0.391 | 0.453 | 0.437 | 0.816 | 0.806 | 0.502
EVLKNYNQQKD [GOLGA4_Y1551] | 0.702 | 0.969 | 0.949 | 1.07 | 0.439 | 0.505 | 0.717 | 0.388 | 0.504 | 0.565 | 0.552 | 0.452 | 0.443 | 0.608 | 0.669 | 0.32
LDLSFYPTSSS [EMD_Y182_YF] | 0.902 | 0.976 | 1.42 | 1.77 | 0.596 | 0.904 | 1.69 | 0.404 | 1.33 | 0.991 | 0.799 | 0.89 | 0.968 | 0.698 | 0.686 | 0.417
ALECLYRREKR [TEKT5_Y195_H196R] | 0.482 | 0.788 | 0.775 | 1.85 | 0.621 | 0.534 | 0.522 | 0.66 | 0.466 | 0.584 | 0.435 | 0.515 | 0.539 | 0.769 | 0.551 | 0.268
RHCSGYVLIAM [EFR3A_Y73_R70C] | 0.669 | 0.846 | 0.885 | 0.879 | 0.268 | 0.403 | 0.575 | 0.517 | 0.51 | 0.596 | 0.501 | 0.472 | 0.376 | 1.01 | 1.05 | 1.05
ASMAKYFASGI [ACADSB_Y372_E376G_YF] | 0.441 | 0.566 | 0.544 | 0.79 | 0.407 | 0.517 | 0.574 | 0.386 | 0.339 | 0.424 | 0.374 | 0.404 | 0.386 | 1.01 | 0.86 | 0.445
LENSTYQYIRV [CRB1_Y760] | 7.65 | 1.11 | 2.11 | 1.86 | 7.03 | 5.02 | 0.91 | 3.07 | 12.1 | 13 | 25.5 | 10.9 | 5.14 | 1.55 | 8.46 | 1.72
IALNSCHSRNC [IFNGR1_Y397_Y397C] | 0.371 | 0.375 | 0.48 | 0.506 | 0.406 | 0.351 | 0.36 | 0.401 | 0.337 | 0.486 | 0.379 | 0.358 | 0.359 | 1 | 0.645 | 0.628
EPYKVYRIVPE [IRF8_Y110] | 0.612 | 0.658 | 0.746 | 0.728 | 0.462 | 0.54 | 0.473 | 0.605 | 0.474 | 0.521 | 0.447 | 0.574 | 0.641 | 0.762 | 0.646 | 0.598
AAGGRYYGLVG [HARS1_Y363_D364Y] | 0.451 | 0.49 | 0.56 | 0.601 | 3.95 | 0.441 | 0.671 | 0.867 | 0.347 | 0.432 | 0.45 | 0.715 | 0.618 | 0.938 | 0.595 | 1.79
AEDKPYAELWT [MPI_Y46_M51T] | 1 | 0.958 | 1.17 | 1.25 | 0.994 | 0.737 | 0.772 | 2.54 | 0.689 | 1.01 | 7.1 | 1.13 | 1.3 | 0.929 | 1.11 | 2.62
VIGRMYDFHVL [RPF2_Y109_YF] | 0.607 | 0.804 | 0.943 | 0.902 | 3.11 | 0.659 | 0.573 | 0.598 | 0.556 | 0.472 | 8.04 | 0.6 | 0.469 | 1.05 | 1.14 | 0.876
KDHPDYEFQPR [SOX9_Y172_K173E_YF] | 0.614 | 0.665 | 1.81 | 0.723 | 0.319 | 0.585 | 0.509 | 0.425 | 1.05 | 0.712 | 0.475 | 0.504 | 0.448 | 0.863 | 0.73 | 0.568
QHVPDYRQNGY [PCDHGA1_Y890_V894G] | 0.578 | 0.719 | 0.788 | 0.887 | 0.493 | 0.548 | 0.621 | 0.514 | 0.484 | 0.52 | 0.496 | 0.524 | 0.523 | 0.889 | 0.678 | 0.486
IVRSLYEDVED [VHL_Y185_L188V] | 0.674 | 1.21 | 1.3 | 1.26 | 0.458 | 0.701 | 0.834 | 0.51 | 0.611 | 0.502 | 1.69 | 0.526 | 0.488 | 0.937 | 0.63 | 11.8
RSHRSYSCQVM [IGLL1_Y192_R189H] | 0.671 | 0.57 | 0.609 | 0.941 | 0.526 | 0.512 | 0.594 | 0.604 | 0.696 | 0.637 | 0.416 | 0.559 | 0.508 | 1.29 | 0.993 | 1.16

Sequence | phosphorylation enrichment (FGFR3) | phosphorylation enrichment (Jak2) | phosphorylation enrichment (AncSZ) | phosphorylation enrichment (Fes) | phosphorylation enrichment (MERTK) | phosphorylation enrichment (EPHB2) | phosphorylation enrichment (c-Abl (mouse)) | phosphorylation enrichment (c-Src) | phosphorylation enrichment (EPHB1) | phosphorylation enrichment (FGFR1) | phosphorylation enrichment (Fer (mouse)) | phosphorylation enrichment (Hck) | phosphorylation enrichment (Fyn) | SH2 binding enrichment (Grb2 SH2) | SH2 binding enrichment (SHP2-C SH2) | SH2 binding enrichment (c-Src SH2)
FAFQLYDLDRD [CHP2_Y123_YF] | 0.68 | 1.13 | 1.06 | 1.37 | 0.694 | 0.673 | 0.823 | 2.17 | 1.23 | 0.467 | 0.631 | 1.03 | 1.2 | 0.991 | 0.885 | 0.923
YVGGFYGGCNE [CTSC_Y352] | 0.962 | 1.06 | 1.17 | 1.14 | 0.682 | 0.553 | 0.869 | 0.786 | 0.54 | 0.639 | 0.786 | 0.984 | 0.864 | 0.77 | 0.651 | 1.23
LYDPDYMKVIL [CYP4A22_Y104] | 1.07 | 2.27 | 1.96 | 1.54 | 1.51 | 2.61 | 1.36 | 0.988 | 2.9 | 1.54 | 1.48 | 0.787 | 0.72 | 0.693 | 0.73 | 0.504
IVRSRYEDLED [VHL_Y185_L184R] | 0.704 | 0.964 | 1.37 | 0.946 | 0.788 | 0.759 | 0.968 | 0.585 | 0.675 | 0.664 | 0.619 | 0.651 | 0.693 | 0.897 | 0.602 | 0.413
FSIDHYLGKEM [G6PD_Y202_R198S_YF] | 0.749 | 1.16 | 1.06 | 1.2 | 0.421 | 0.61 | 0.845 | 0.464 | 0.669 | 0.579 | 0.511 | 0.537 | 0.545 | 0.831 | 0.953 | 0.643
FQRITYHNWRH [PDE6B_Y556_R552Q_YF] | 0.634 | 0.791 | 0.55 | 0.762 | 0.41 | 0.511 | 0.487 | 0.417 | 0.449 | 0.447 | 0.452 | 0.478 | 0.466 | 1.73 | 1.86 | 1.61
SQETYYRVSNM [ABCD1_Y181_Q178E] | 4.94 | 3.85 | 1.37 | 0.805 | 3.7 | 2.95 | 1.33 | 2.96 | 4.42 | 6.81 | 0.549 | 3.97 | 2 | 0.657 | 0.79 | 0.473
GEKKAYVRLAP [RPL23A_Y137] | 0.43 | 0.468 | 0.548 | 0.606 | 0.373 | 0.323 | 0.628 | 0.296 | 0.363 | 0.425 | 0.398 | 0.337 | 0.37 | 1.12 | 0.851 | 0.667
TVFENYVADIK [RHOA_Y42_E47K] | 0.688 | 0.889 | 0.922 | 0.878 | 0.442 | 0.676 | 0.699 | 0.536 | 0.845 | 0.48 | 0.495 | 0.534 | 0.534 | 0.846 | 0.607 | 0.538
RRVPVYGGRGA [QDPR_Y16_L14P] | 0.627 | 1.36 | 0.969 | 0.836 | 0.779 | 0.512 | 1.28 | 1.15 | 0.573 | 0.762 | 0.626 | 0.702 | 0.626 | 0.852 | 0.774 | 0.527
SGGLDYGMVGG [TNRC6B_Y1382_M1380L] | 0.537 | 0.636 | 0.765 | 0.722 | 0.43 | 0.973 | 0.523 | 1.88 | 0.527 | 0.446 | 0.476 | 0.76 | 2.21 | 0.775 | 0.724 | 0.489
VGTKQYMAPEV [ACVRL1_Y375_R374Q] | 0.51 | 0.738 | 0.678 | 0.754 | 0.469 | 0.653 | 0.674 | 0.598 | 0.466 | 0.458 | 0.42 | 0.429 | 0.432 | 0.832 | 0.572 | 0.485
TTGLIYIGSHD [AASDH_Y870] | 0.79 | 0.715 | 0.726 | 0.759 | 0.323 | 0.565 | 0.488 | 0.408 | 0.686 | 0.445 | 0.424 | 0.46 | 0.375 | 1.04 | 0.69 | 0.624
QDEHGYIFRCF [HSPB1_Y133_S135F] | 1.31 | 1.6 | 1.75 | 2.15 | 0.524 | 0.762 | 1.19 | 0.661 | 1.27 | 0.912 | 0.793 | 0.735 | 0.924 | 0.702 | 0.469 | 0.566
ALAHKHHGGGG [HBB_Y146_Y146H] | 0.539 | 0.558 | 0.588 | 0.593 | 0.416 | 0.391 | 0.569 | 0.505 | 0.372 | 0.355 | 0.419 | 0.419 | 0.414 | 0.771 | 0.673 | 0.586
FLAVGYHKTHI [IDS_Y225_P228T] | 0.649 | 0.971 | 0.784 | 0.946 | 0.441 | 0.484 | 0.638 | 0.4 | 0.548 | 0.429 | 0.447 | 0.469 | 0.477 | 1.23 | 1.37 | 1.03
